{"source": "patent US6902885", "about": "(APOPTOSIS TECHNOLOGY, dated 2005)", "target": "T1, caspase 9 (UniProt P55211 1-416)", "T1 sequence": "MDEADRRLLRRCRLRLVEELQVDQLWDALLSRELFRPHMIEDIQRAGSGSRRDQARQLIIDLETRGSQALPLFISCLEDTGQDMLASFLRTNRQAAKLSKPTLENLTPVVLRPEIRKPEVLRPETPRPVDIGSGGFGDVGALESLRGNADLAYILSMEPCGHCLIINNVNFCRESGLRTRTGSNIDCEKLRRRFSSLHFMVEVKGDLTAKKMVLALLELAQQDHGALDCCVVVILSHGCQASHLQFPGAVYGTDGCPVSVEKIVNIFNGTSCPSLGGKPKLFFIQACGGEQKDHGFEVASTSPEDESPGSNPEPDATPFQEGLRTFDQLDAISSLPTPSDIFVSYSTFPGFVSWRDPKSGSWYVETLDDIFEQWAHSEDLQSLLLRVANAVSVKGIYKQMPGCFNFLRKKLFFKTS", "experiment": "pull-down: pUL37Smyc held by anti-myc antibody on protein G agarose beads, 35S-labelled in vitro translated protein, SDS-PAGE"}
{"binder": "pUL37Smyc (HCMV pUL37S fused at its C-terminus with a c-myc-epitope tag) (other, range 410-419; also called pUL37x1; pUL37x1myc) MSPVYVNLLGSVGLLAFWYFSYRWIQRKRLEDPLPPWLRKKKACALTRRSRHRLRRQHGVIDGENSETERSVDLVAALLAEAGEESVTEDTEREDTEEEREDEEEENEARTPEVNPIDAEGLSGLAREACEALKKALRRHRFLWQRRQRARMLQHNGPQQSHQ", "values": [{"measurement": "binding result", "result": "no binding"}]}
